± gives the uncertainty stated by the source.

The data set in a line: amyloid nucleation score (Sup35N fusion, yeast selection) (log enrichment); library NNK1; higher = more nucleation; inactive = no reads after selection. The essentials: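 The nucleation score equals the log enrichment of output over input reads from DiMSum, centred on the mode score of non-aggregating sequences. It was computed only for sequences with 100 or more input reads. The reads came from Illumina sequencing of plasmid inserts from psi-negative yeast expressing Sup35N fused to peptides of 20 random codons, induced with 100 μM copper sulfate for 24 hours and grown 7 days at 30°C without adenine and uracil.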
In turn, FLTNNLYCTPYF showed an amyloid nucleation score of 3.19 ± 0.079.
The same measure for FLVNFGWRFAD: 1.14 ± 0.32.
FLWSYWPCSVGTEMTSQVRI returned an amyloid nucleation score of -0.459 ± 0.82.
As for FLYDYYG, the amyloid nucleation score result is “inactive”.
As for FMCTINKFLYTVACPWHYLP, the figure is 3.96 ± 0.16.
FMIAFVFSKTRGQSIVSYSV gave an amyloid nucleation score of -0.747 ± 0.85.
As for FMRYNCNCKWDYFFRDCPAG, the figure is -0.357 ± 0.36.
As for FMSNIDLFTGFLRDMWFIIF, the figure is -0.312 ± 0.55.
As for FMSYD, the amyloid nucleation score is 0.362 ± 0.79.
As for FMTEWSVTFMRMYMAYLGSV, the figure is 0.424 ± 0.29; as for FMYKMGSYGMDM, -0.57 ± 0.5.
The same measure for FNAIWVVLRVRNREYKTSVL: 1.03 ± 0.7; for FNCRVNFFDSVGY: 3.28 ± 0.16.
For the substance FNDEHKSSIG, the amyloid nucleation score was -0.549 ± 0.58.
As for FNDQVQTWWLSYFEAPRYFK, the figure is -1.29 ± 2.4; as for FNKVSAMDEAREYGVEVVAV, 5.46 ± 0.073; as for FNLFVTFSMLRPWSAVPMLA, 0.338 ± 0.81.
As for FNLITSD, the figure is 0.074 ± 0.52; as for FNLVKT, 0.704 ± 0.69; as for FNMENVGKSQSRAAVRVRH, 0.961 ± 0.42.
The same measure for FNMNHGMVSVRVEDRISRAC: 0.579 ± 0.28; for FNMPDKQILKLESLWHGMVA: “inactive”.
Substance FNRLSCFFSKSHPVQTGYNS yielded an amyloid nucleation score of -0.01 ± 0.51.
The same measure for FNRNNMKYQYFLKRIYMNW: -0.338 ± 1.4.
The same measure for FNRSLLLALVSAFENGLLSW: 0.51 ± 1.2; for FNYIFRWLVMGTGSCTGS: 0.45 ± 0.29.
As for FPILVCVLKVLDVVLSDRVL, the entry is “inactive”.
FQCDVIYA displayed an amyloid nucleation score of -0.72 ± 0.52.
As for FQGLSFKHGAIGSAYSQSFD, the entry is “inactive”; as for FQRTGQKMWNNKKCSGRQHD, -0.648 ± 0.51; as for FQSECSCIPKAWSVFMGTAG, -0.476 ± 0.58.
Substance FRCYVFANCD showed an amyloid nucleation score of 1.59 ± 0.4.
The same measure for FRDYLAKPCGGWEEYLVDDT: 0.68 ± 0.48; for FRHPMTDDDTPWKAARFVE: -1.6 ± 2.4.
The same measure for FRMGFISYQTQTLTSRVFSF: 2.73 ± 0.19; for FRSFGVR: 0.924 ± 0.97.
As to FRSLFYVFHYLECFYL, the amyloid nucleation score came to 3.52 ± 0.12.
Substance FRTSVDNLIGSENRISLRTS came in with an amyloid nucleation score of 0.541 ± 0.68.
As for FRTYIFP, the figure is -0.091 ± 0.51; as for FRVMDRVGSCLIVELTPG, 0.084 ± 0.55.
For the substance FRVMNRGAFYMRFKLG, the amyloid nucleation score came out at 1.04 ± 0.67.
As for FRVNCVAWDASGTYTYGR, the figure is 0.525 ± 0.4; as for FRVYVSCVLCNDCVVYHRFE, 7.602 ± 0.072.
As for FRYSSDWWSYS, the figure is -0.834 ± 1.4; as for FSADVIFPCISSTLQKPPWW, -0.081 ± 0.54.
As for FSALYPGREISA, the figure is 1.51 ± 0.84; as for FSDCCLSAKRA, -0.46 ± 0.73.
FSDFN came in with an amyloid nucleation score of -0.3 ± 0.42.
As for FSEVSNWVFLNIYYVAFF, the figure is 0.934 ± 0.25; as for FSGVMLPVLIISRF, “inactive”.
As for FSHLFHQY, the figure is 2.13 ± 0.57; as for FSKQTPVASEG, “inactive”.
The same measure for FSLRLRDSWWAHSGRLYAYK: -0.428 ± 0.56; for FSSIIG: -0.528 ± 0.4.
FSTMAYTWVLYTSWACAGAS registered an amyloid nucleation score of 0.075 ± 0.69.
As for FSTVILSAYSAFSFGIYLLS, the figure is 1.46 ± 0.33.
As for FSWCGWQRRSSVVAGSRILW, the figure is -0.118 ± 1.1.
The same measure for FSYYVKGDGKERVGWMASIM: -0.94 ± 0.94; for FTDTICCIVMQFKPKRSGSS: 4.87 ± 0.088.
In the case of FTFNYIATVSQLPGFGVIHS, the amyloid nucleation score came out at 0.343 ± 0.7.
As for FTGCGLSPMGT, the figure is 1.05 ± 0.73; as for FTGRNSNMIFLSYWVCYYQN, 6.983 ± 0.05.
As for FTNPRINMSRFSLSFCPARY, the figure is 2.1 ± 0.25; as for FTSLWDCALTHVVTFPAILG, -1.36 ± 1.8.
Turning to FTVARYKGIYNFSQGRCA, the amyloid nucleation score was -0.33 ± 1.2.
The same measure for FTVVISSLNEGEEHRVWCKF: -0.444 ± 1.2; for FTWERSH: 0.655 ± 0.68; for FTWWHIRGCGCCVACEGHRS: 0.05 ± 0.65.
As for FVADGLAPFLPMTVPLVGIK, the figure is -1.06 ± 2.4.
The same measure for FVCYSLNSSSFMIPYWILLK: -0.293 ± 0.46.
FVFFSLGHLAFFARDRYSPW showed an amyloid nucleation score of 2.38 ± 0.094.
The same measure for FVGRCLNMKTCRRCLLSWDN: 0.128 ± 1.6.
On to FVIDV, for which the amyloid nucleation score is -0.568 ± 0.98.
The same measure for FVLDNRKFYVCFVGYRFGLF: 4.83 ± 0.051; for FVLERTGIRLLCL: 0.363 ± 0.38.
The substance FVLTYDLMLLQSGFNSRL showed an amyloid nucleation score of 0.756 ± 0.87.
As for FVLVMLNMQ, the figure is 4.4 ± 0.093.
On to FVMLFSCRST, for which the amyloid nucleation score was 0.38 ± 0.76.
Turning to FVSIRCVKYASYISHSHGLV, the amyloid nucleation score result is “inactive”.
The same measure for FVSSSKLIGCLVRHQKMANR: 0.258 ± 0.59; for FVSYTSP: -0.079 ± 0.33; for FVTDMAYNMMESGLHT: 6.44 ± 0.044.
As for FVTQAGRGMHR, the figure is 0.682 ± 0.75; as for FVVGSRFMKIHVSGGDLGFF, -0.144 ± 0.39.
As for FVVSDIMGDLRKM, the figure is 1.38 ± 0.71; as for FVVSDTGKVKWGMAQ, 2.68 ± 0.14.
Take FVYCNAAIAISSFGTWEPKG: the amyloid nucleation score worked out at 2.9 ± 0.1.
As for FWATRVTWLDEMLIYYCLVN, the figure is 0.155 ± 0.36.
On to FWISRYVLQKDWKGWICTEL, for which the amyloid nucleation score is -0.338 ± 0.83.
The same measure for FWLILFIVFIKYMNILFRTC: 1.08 ± 0.27; for FWPGFSWSIKLQLTFG: -0.326 ± 0.3.
FWQIAGRGFGRYG had an amyloid nucleation score of -0.258 ± 0.45.
The same measure for FWTAPKLARDMSVLVTVFFY: -1.4 ± 2.1.
As for FWTKSGSEEIITMVSTVRWR, the figure is -0.749 ± 1.1; as for FWWIGYKTSSDGPRAVAIWC, -0.137 ± 0.26.
The same measure for FYAVVEQIKFMRSLNLNLLN: -0.08 ± 0.36; for FYDPALMSITNSD: 1.73 ± 0.15; for FYGCNSRA: -0.037 ± 0.97.
The substance FYLRSSTNEPRENNVNLALY registered an amyloid nucleation score of -0.345 ± 1.7.
As for FYPFLQR, the figure is 1.48 ± 0.63.
The same measure for FYQTS: 0.634 ± 0.4; for FYRASKDCLAKVRRVGC: 0.482 ± 0.59; for FYRSLVVNM: -0.081 ± 0.96.
The same measure for FYSNWRYDGYWDDLGMNIIV: -0.372 ± 0.4; for FYTVSCLVCLGL: 8.507 ± 0.047; for FYVRCREMSRGVWWSTSVR: -0.188 ± 0.34.
GACYNSGCCFNPLDWYK yielded an amyloid nucleation score of 0.904 ± 0.57.
As for GAFNQSMDSCGFMFPHNMRP, the figure is 0.724 ± 1; as for GAIFYGVCCIRPNWNVVSTS, 5.69 ± 0.059.
As for GALCCLCRSNHYVLQCGVKC, the figure is 1.47 ± 0.7.
Consider GALGWWSSFVCEEAGKLTLR, for which the amyloid nucleation score is 0.792 ± 0.48.
GASFVGTGKWVLTGWKTRRF yielded an amyloid nucleation score of 0.124 ± 0.97.
In the case of GAYYGRSSKELGNNEGTGTG, the amyloid nucleation score was 0.51 ± 0.52.
In the case of GCAQRKVAPWNRGLRQ, the amyloid nucleation score was -0.501 ± 0.62.
The same measure for GCFEFVCEVAVGVSLDYSYL: -0.085 ± 0.28.
Consider GCILHFHSGRGYIGSRMVGW, for which the amyloid nucleation score was determined as 1.31 ± 0.32.
The same measure for GCKSGDGQRVGVLLNQNCTR: 0.863 ± 0.56; for GCLKTVGCA: -0.22 ± 0.64; for GCNMII: -0.34 ± 0.38.
As for GCQLLYAKHIQSIMSQRPKN, the figure is 0.374 ± 0.65.
On to GCRPG, for which the amyloid nucleation score is -0.151 ± 0.59.
Consider GCSLWVGVLCKNCFFDDLIM, for which the amyloid nucleation score stood at 5.807 ± 0.055.
As to GCSVAASSESNNRSQQVGLT, the amyloid nucleation score was determined as 1.02 ± 0.84.
As for GCVSVPYQLPPLISYGLVN, the figure is -0.123 ± 0.62; as for GDISYVSASLQLFNWVLSCV, 3.97 ± 0.13.
With GDLRSSILRLPTWRLWWITT, the amyloid nucleation score was 0.174 ± 0.29.
As for GDRVAEFQFPLSYTRPELSL, the figure is 0.046 ± 0.72.
GDSLTLTLFRIIYIGFRTDY displayed an amyloid nucleation score of -1.03 ± 0.44.
As for GEDGG, the figure is 0.148 ± 0.52; as for GEFTRGDTSKWFLLDK, 0.577 ± 0.56.
The same measure for GELTIYCSVVPYVVSR: 0.415 ± 0.44; for GETRGVPPNFFTPIIQLSSA: “inactive”.
The same measure for GEYLRLSIWGLDKDNKGVQ: -0.073 ± 0.42.
GFFLVLYHCFYWISRVR displayed an amyloid nucleation score of 0.737 ± 0.58.
The same measure for GFGAQPWRARSMFYK: 0.566 ± 0.67; for GFHEIMLYYSYIKVLVIDSH: 0.387 ± 0.75; for GFLCQSRVLAML: “inactive”.
As for GFPLQSKDTARNIGTQFLEW, the figure is -0.003 ± 0.4; as for GFRFEMSRQIHKWQSSCLLY, 0.489 ± 0.6.
As for GFSANGLPCGAEAGEVFYTV, the figure is -0.725 ± 0.81; as for GFSRYSPRSKFFNSLVLKSS, -0.171 ± 1.1.

The record behind these values is the supplement of paper PMC12042874.
